Here are results for 68 molecules from patent US20200040057A1 (IMMATICS BIOTECHNOLOGIES, published 2020).

In this test the target is HLA-B*07 (human). Description: UV peptide exchange ELISA; +++ = yield >50. In general terms: An ELISA detects its analyte on a solid surface through an enzyme-linked reagent.
Molecule WPRLPGAGL gave a peptide exchange yield of 50 to 75%. For the molecule SPYADIIPSA, the peptide exchange yield was 50 to 75%. In the case of APMAPGRSP it was 50 to 75%; in that of KPMLPPAAF, 50 to 75%; in that of HPYSDLADVF, 50 to 75%.

FPAFLEAM yielded a peptide exchange yield of 50 to 75%. RPFPLALL: the peptide exchange yield was 50 to 75%. As to APRSPGQVTPRGL, the peptide exchange yield was 50 to 75%. In the case of LPMTHRLQL it was 50 to 75%; in that of RPGPSDPAA, 50 to 75%; in that of QPANFIVLL, 50 to 75%.

On to APRPRLLLL, for which the peptide exchange yield was in the range of 50 to 75%.

As for KPRATWTL, the peptide exchange yield was 50 to 75%. Next, LPLRAVNLNL: 50 to 75%; RIRVTSEVL: 50 to 75%; YPGFTKRL: 50 to 75%.

In the case of SSPRGTTSTL, the peptide exchange yield was 50 to 75%.

For APEPRAALL, the peptide exchange yield was 50 to 75%. In the case of SPSLQSSRESL it was 50 to 75%. As for RPFSREMDL, the peptide exchange yield is 50 to 75%. YPLQGPGLLSV returned a peptide exchange yield of 50 to 75%. SPFSKRIKL displayed a peptide exchange yield of 50 to 75%. The molecule IPAPQGAVL came in with a peptide exchange yield of 50 to 75%. APSMLRKNQL came in with a peptide exchange yield of 50 to 75%.

Turning to AASPVGSAL, the peptide exchange yield was in the range of 50 to 75%. As to LPYEKVSRL, the peptide exchange yield lay within 50 to 75%.

Turning to APLPPPRAL, the peptide exchange yield was in the range of 50 to 75%. Next, SPDSAILKL: 50 to 75%; RPRPPKVL: 50 to 75%. KPRATWTLKL: the peptide exchange yield was 50 to 75%. Molecule LHAMNSLSAM came in with a peptide exchange yield of 50 to 75%. As to RPHQKGWLSI, the peptide exchange yield lay within 50 to 75%.

Turning to IPIDQILNSF, the peptide exchange yield is 50 to 75%. Next, RPFLRLPSL: 50 to 75%; RPRPPKVLGL: 50 to 75%. As to SPSKSLEM, the peptide exchange yield lay in the range of 50 to 75%. Consider SPARALLLALA, for which the peptide exchange yield was in the range of 50 to 75%. In the case of SPTPVFTTL it was 50 to 75%; in that of KPAAAGVKKVA, 50 to 75%; in that of MPATPSLKV, 50 to 75%. For the molecule VPVSHPVLTL, the peptide exchange yield lay within 50 to 75%. Next, KPIRTGISPLAL: 50 to 75%. VPFVPRTSV gave a peptide exchange yield of 50 to 75%. Next, APADEPRTVL: 50 to 75%; SAAPPGASL: 50 to 75%; RITWKGLLL: 50 to 75%.

On to RVLLRWISL, for which the peptide exchange yield was in the range of 50 to 75%.

Take SVLPRALSL: the peptide exchange yield is 50 to 75%.

GPQRTTSV: the peptide exchange yield was 50 to 75%.

QPQQPGFFL: the peptide exchange yield was 50 to 75%.

Molecule QPISGNPVTL displayed a peptide exchange yield of 50 to 75%. Molecule RAVPVGSGL had a peptide exchange yield of 50 to 75%. Next, LIAARGSLVL: 50 to 75%.

As for VPAAPTKAL, the peptide exchange yield is 50 to 75%. The molecule VPPQNPRPSL yielded a peptide exchange yield of 50 to 75%. Regarding NPREPEKSL, the peptide exchange yield is 50 to 75%.

LPPPRALTL showed a peptide exchange yield of 50 to 75%. Regarding LPLHRGDLVI, the peptide exchange yield lay within 50 to 75%. In the case of RPQGAVGGL, the peptide exchange yield was 50 to 75%.

In turn, LPLGGLPLLI registered a peptide exchange yield of 50 to 75%. For the molecule RPRYSIGL, the peptide exchange yield was 50 to 75%. In the case of TRPWSGPYIL, the peptide exchange yield was 50 to 75%. With FAFYGGKSL, the peptide exchange yield was 50 to 75%. In the case of SPRGTTSTL it was 50 to 75%; in that of YVVKPLHPF, 50 to 75%; in that of MPAVSGPGPLF, 50 to 75%. Regarding QPRPSSEKI, the peptide exchange yield was in the range of 50 to 75%.

HPAPPVTSA returned a peptide exchange yield of 50 to 75%.
